According to patent US20120010388A1 (published 2012):
Values belong to the binder of their own block, whether it stands above or below them.

What was measured:
[1] = target: T1, HER2 (UniProt P04626 23-1255, limits assumed); assay: flow cytometry on SKBR3 cells (HER2 and Lewis Y on the cells), PE anti-human Fc detection, half maximal staining intensity
T1 construct: whole, on cells; The target cells are SKBR3; also called ErbB-2; CD340
Method: SKBR3 cells are cultured in RPMI1640 containing 10% fetal calf serum an 8 mM glutamine. The cells are harvested by trypsination. A total of 1×10⁵ cells in PBS containing 0.1% BSA are incubated with dilutions of the bispecific molecules or control proteins (anti-Lewis Y antibody IGN311 and anti-HER Fcabs respectively) in the range of 1 mM to 0.1 nM and incubated on ice for 20 min. After removal of excess of bispecific molecules or control proteins cells are incubated for 10 min on ice with phycoerythrin-R-coupled polyclonal anti-human FC antibody (Sigma). Measurements are performed on a FACS analyzer (FACS Calibur).
The half maximal staining intensity (EC50) is reached for molecule no. 1 at around 1 nM and for molecule no. 2 at around 10 nM.

[2] = target: T1, HER2; assay: cell-based or functional assay

EC50 [1]: ~1 nM
B1: molecule no. 1 (IGN311/Fcab 10-03-6) (bispecific antibody, human IgG1, kappa)
heavy: EVQLLESGGGLVQPGGSLRLSCAASGFTFSDYYMYWVRQAPEKRLEWVAYISNGGGSSHYVDSVKGRFTISRDNAKNTLYLQMNSLRAEDTALYHCARGMDYGAWFAYWGQGTLVTVSSASTKGPSVFPLAPSSKSTSGGTAALGCLVKDYFPEPVTVSWNSGALTSGVHTFPAVLQSSGLYSLSSVVTVPSSSLGTQTYICNVNHKPSNTKVDKKVEPKSCDKTHTCPPCPAPELLGGPSVFLFPPKPKDTLMISRTPEVTCVVVDVSHEDPEVKFNWYVDGVEVHNAKTKPREEQYNSTYRVVSVLTVLHQDWLNGKEYKCKVSNKALPAPIEKTISKAKGQPREPQVYTLPPSRDEYLHGDVSLTCLVKGFYPSDIAVEWESNGQPENNYKTTPPVLDSDGSFFLYSKLTVARYSPRMLRWAHGNVFSCSVMHEALHNHYTQKSLSLSPGK
light: DIVMTQSPLSLPVTPGEPASISCRSSQSIVHSNGNTYLEWYLQKPGQSPQLLISKVSNRFSGVPDRFSGSGSGTDFTLKISRVEAEDVGVYYCFQGSHVPFTFGQGTKLEIKRTVAAPSVFIFPPSDEQLKSGTASVVCLLNNFYPREAKVQWKVDNALQSGNSQESVTEQDSKDSTYSLSSTLTLSKADYEKHKVYACEVTHQGLSSPVTKSFNRGEC
notes: IgG: humanized anti-Lewis Y antibody IGN311 whose CH3 domain is replaced by the CH3 of the anti-HER2 Fcab 10-03-6
half maximal (50%) immediate cytotoxicity (EC50), 51Cr release from SKBR3 cells [2]: ~1 nM

EC50 [1]: ~10 nM
B2: molecule no. 2 (IGN311/Fcab H561G3M1G4) (bispecific antibody, human IgG1, kappa)
heavy: EVQLLESGGGLVQPGGSLRLSCAASGFTFSDYYMYWVRQAPEKRLEWVAYISNGGGSSHYVDSVKGRFTISRDNAKNTLYLQMNSLRAEDTALYHCARGMDYGAWFAYWGQGTLVTVSSASTKGPSVFPLAPSSKSTSGGTAALGCLVKDYFPEPVTVSWNSGALTSGVHTFPAVLQSSGLYSLSSVVTVPSSSLGTQTYICNVNHKPSNTKVDKKVEPKSCDKTHTCPPCPAPELLGGPSVFLFPPKPKDTLMISRTPEVTCVVVDVSHEDPEVKFNWYVDGVEVHNAKTKPREEQYNSTYRVVSVLTVLHQDWLNGKEYKCKVSNKALPAPIEKTISKAKGQPREPQVYTLPPSRDEFFTYWVSLTCLVKGFYPSDIAVEWESNGQPENNYKTTPPVLDSDGSFFLYSKLTVDRRRWTAGNVFSCSVMHEALHNHYTQKSLSLSPGK
light: B1 light
notes: IgG: humanized anti-Lewis Y antibody IGN311 whose CH3 domain is replaced by the CH3 of the anti-HER2 Fcab H561G3M1G4
half maximal (50%) immediate cytotoxicity (EC50), 51Cr release from SKBR3 cells [2]: ~10 nM
